Results taken from US20240158497A1 (published 2024).

T1: Macaca Fascicularis GP130 extracellular domain expressed with a C-terminal myc-myc-hexahistidine tag (Macaca fascicularis, UniProt P40189 23-619 (human entry))
T1 construct: also called mfGP130-MMH; mfGP130-mmH
T1 chain: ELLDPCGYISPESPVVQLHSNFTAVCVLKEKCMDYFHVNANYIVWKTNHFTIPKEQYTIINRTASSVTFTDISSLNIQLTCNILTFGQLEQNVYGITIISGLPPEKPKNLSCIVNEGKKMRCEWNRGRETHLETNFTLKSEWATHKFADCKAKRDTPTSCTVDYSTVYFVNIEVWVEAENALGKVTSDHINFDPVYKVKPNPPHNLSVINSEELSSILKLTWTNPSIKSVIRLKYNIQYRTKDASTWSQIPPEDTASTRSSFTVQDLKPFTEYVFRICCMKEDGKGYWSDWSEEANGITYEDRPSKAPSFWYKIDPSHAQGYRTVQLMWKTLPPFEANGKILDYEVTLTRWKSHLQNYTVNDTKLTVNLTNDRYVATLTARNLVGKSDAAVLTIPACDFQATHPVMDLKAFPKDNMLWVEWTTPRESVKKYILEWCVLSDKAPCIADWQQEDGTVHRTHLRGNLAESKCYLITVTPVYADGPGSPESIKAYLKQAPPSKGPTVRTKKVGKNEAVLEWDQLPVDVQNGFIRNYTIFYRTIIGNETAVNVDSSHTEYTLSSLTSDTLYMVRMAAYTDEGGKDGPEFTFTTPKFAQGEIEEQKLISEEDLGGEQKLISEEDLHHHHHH


Experiments:
[1] = molecular target: T1, Macaca Fascicularis GP130 extracellular …; assay: SPR, bsAb captured by anti-hFc, 25C
Method: (§1) Equilibrium dissociation constants (KD values) for LEPR and GP130 binding to purified anti-LEPR/GP130 bispecific antibodies were determined using a real-time surface plasmon resonance biosensor using a Biacore 4000 instrument. All binding studies were performed in 10 mM HEPES, 150 mM NaCl, 3 mM EDTA, and 0.05% v/v Surfactant Tween-20, pH 7.4 (HBS-ET) running buffer at 25° C. and 37° C. The Biacore sensor surface was first derivatized by amine coupling with a monoclonal mouse anti-human Fc antibody (GE, #BR-1008-39) to capture anti-LEPR/GP130 bispecific antibodies. […] Different concentrations of LEPR or GP130 reagents were first prepared in HBS-ET running buffer (100 nM-3.7 nM; 3-fold serial dilution) and were injected over anti-human Fc captured anti-LEPR/GP130 bispecific antibody surface for 4 minutes at a flow rate of 30 μL/minute, while the dissociation of bispecific antibody bound LEPR or GP130 reagent was monitored for 10 minutes in HBS-ET running buffer. Kinetic association (kₐ) and dissociation (kd) rate constants were determined by fitting the real-time binding sensorgrams to a 1:1 binding model with mass transport limitation using Scrubber 2.0c curve-fitting software. Binding dissociation equilibrium constants (KD) and dissociative half-lives (t ½) were calculated from the kinetic rate constants as: […]

[2] = molecular target: T2, human GP130 extracellular domain expressed with a C-terminal myc-myc-hexahistidine tag (human, UniProt P40189 23-619); assay: SPR, bsAb captured by anti-hFc, 25C
T2 construct: also called hGP130-MMH; hGP130-mmH
Method: as §1

[3] = molecular target: T1, Macaca Fascicularis GP130 extracellular …; assay: SPR, bsAb captured by anti-hFc, 37C
Method: as §1

[4] = molecular target: T2, human GP130 extracellular domain …; assay: SPR, bsAb captured by anti-hFc, 37C
Method: as §1

| Binder | 100 nM mfGP130-MMH Bound (RU) [1] | Kd [1] | koff [1] | kon [1] | t½ [1] | 100 nM hGP130-MMH Bound (RU) [2] | Kd [2] | koff [2] | kon [2] | t½ [2] | 100 nM mfGP130-MMH Bound (RU) [3] | Kd [3] | koff [3] | kon [3] | t½ [3] | 100 nM hGP130-MMH Bound (RU) [4] | Kd [4] | koff [4] | kon [4] | t½ [4] | further results |
| --- | --- | --- | --- | --- | --- | --- | --- | --- | --- | --- | --- | --- | --- | --- | --- | --- | --- | --- | --- | --- | --- |
| bsAb19144D (bispecific antibody, V domains shown, LEPR x GP130 bispecific with common light chain) VH 1: QVQLVESGGGVVQPGRSLRLSCTASGFTFSSYAMYWVRQAPGKGLEWVSVIYYDGSYKYYADSVKGRFTISRDNSKNTLYLQMDSLRAEDTAVYYCASYNWNYWYFDFWGRGTLVTVSS VH 2: QVQLVQSGAEVKKPGASVKVSCKASGYTFTSLGISWVRQAPGQGLEWMGWISAYSGNRDYAQKFQGRVTMTTDTSTSTAYMELRSLRSDDTAVYYCARSLRFDYWGQGTLVTVSS VL: not shown | 27 RU | 13.4 nM | 0.000762 s⁻¹ | 56700 M⁻¹ s⁻¹ | 15 min | 27 RU | 12.1 nM | 0.000777 s⁻¹ | 64300 M⁻¹ s⁻¹ | 15 min | 41 RU | 10.9 nM | 0.00183 s⁻¹ | 168000 M⁻¹ s⁻¹ | 6 min | 42 RU | 10.6 nM | 0.00188 s⁻¹ | 177000 M⁻¹ s⁻¹ | 6 min |  |
| bsAb19145D (bispecific antibody, V domains shown, LEPR x GP130 bispecific with common light chain) VH 1: QVQLVESGGGVVQPGRSLRLSCTASGFTFSSYAMYWVRQAPGKGLEWVSVIYYDGSYKYYADSVKGRFTISRDNSKNTLYLQMDSLRAEDTAVYYCASYNWNYWYFDFWGRGTLVTVSS VH 2: EVQLVESGGGLVQPGRSLRLSCAASGFTLDDFAMHWVRQAPGKGLEWVSGISWNSGNIGYADSVKGRFTISRDNARNSLYLQMNSLRAEDTALYYCTSGYYLYYAMDVWGQGTTVTVSS VL: not shown | 18 RU | 17.4 nM | 0.000576 s⁻¹ | 33100 M⁻¹ s⁻¹ | 20 min | 19 RU | 17.5 nM | 0.000598 s⁻¹ | 34100 M⁻¹ s⁻¹ | 19 min | 29 RU | 37.6 nM | 0.00221 s⁻¹ | 58800 M⁻¹ s⁻¹ | 5 min | 30 RU | 32 nM | 0.00222 s⁻¹ | 69200 M⁻¹ s⁻¹ | 5 min |  |
| bsAb19152D (bispecific antibody, V domains shown, LEPR x GP130 bispecific with common light chain) VH 1: QVQLVESGGGVVQPGRSLRLSCTASGFTFSSYAMYWVRQAPGKGLEWVSVIYYDGSYKYYADSVKGRFTISRDNSKNTLYLQMDSLRAEDTAVYYCASYNWNYWYFDFWGRGTLVTVSS VH 2: EVQLVQSGAEVKKPGESLKISCKGSGYSFTSYWIDWVRQMPGKGLEWMGIIYPDDSDTRYSPSFQGQVTMSVDKSISTAYLQWSSLKASDTAIYYCARHERGIVEAGTDYYYYYGMDVWGQGTTVTVSS VL: not shown | 52 RU | 18.8 nM | 0.00553 s⁻¹ | 295000 M⁻¹ s⁻¹ | 2.1 min | 35 RU | 57.4 nM | 0.0113 s⁻¹ | 196000 M⁻¹ s⁻¹ | 1 min | 51 RU | 51.6 nM | 0.0177 s⁻¹ | 342000 M⁻¹ s⁻¹ | 0.7 min | 28 RU | 89.1 nM | 0.0363 s⁻¹ | 407000 M⁻¹ s⁻¹ | 0.3 min |  |
| bsAb19155D (bispecific antibody, V domains shown, LEPR x GP130 bispecific with common light chain) VH 1: QVQLVESGGGVVQPGRSLRLSCTASGFTFSSYAMYWVRQAPGKGLEWVSVIYYDGSYKYYADSVKGRFTISRDNSKNTLYLQMDSLRAEDTAVYYCASYNWNYWYFDFWGRGTLVTVSS VH 2: EVQLVESGGGLVQPGGSLRLSCAASGFTFSTYWMNWVRQAPGKGLEWVANIKEDGSEKYYVDSVKGRFTISRDNAKNSLYLQMNSLRAEDTAVYYCAREGFGVVTYIWGQGTMVTVSS VL: not shown | 7 RU | 186 nM | 0.0184 s⁻¹ | 98500 M⁻¹ s⁻¹ | 0.6 min | 7 RU |  |  |  |  | 3 RU |  |  |  |  | 4 RU |  |  |  |  | binding result [4]: no binding (tested: 100 nM) |

Further lines, with some results ahead:

| 100 nM mfGP130-MMH Bound (RU) [1] | Kd [1] | koff [1] | kon [1] | t½ [1] | 100 nM hGP130-MMH Bound (RU) [2] | Kd [2] | koff [2] | kon [2] | t½ [2] | 100 nM mfGP130-MMH Bound (RU) [3] | Kd [3] | koff [3] | kon [3] | t½ [3] | 100 nM hGP130-MMH Bound (RU) [4] | Kd [4] | koff [4] | kon [4] | t½ [4] | Binder | further results |
| --- | --- | --- | --- | --- | --- | --- | --- | --- | --- | --- | --- | --- | --- | --- | --- | --- | --- | --- | --- | --- | --- |
| 3 RU |  |  |  |  | 9 RU | 10.5 nM | 0.000221 s⁻¹ | 21100 M⁻¹ s⁻¹ | 52 min | 6 RU |  |  |  |  | 16 RU | 16.6 nM | 0.000373 s⁻¹ | 22400 M⁻¹ s⁻¹ | 31 min | bsAb19151D (bispecific antibody, V domains shown, LEPR x GP130 bispecific with common light chain) VH 1: QVQLVESGGGVVQPGRSLRLSCTASGFTFSSYAMYWVRQAPGKGLEWVSVIYYDGSYKYYADSVKGRFTISRDNSKNTLYLQMDSLRAEDTAVYYCASYNWNYWYFDFWGRGTLVTVSS VH 2: EVQLVESGGGLVQPGGSLRLSCAASGFTFSSYAMNWVRQAPGKGLEWVSAISGSGDSTYYTDSVKGRFTISRDNSKNTLYLQMNTLRAEDTAVYYCAKEEIVMLVGATPGWFDPWGQGTLVTVSS VL: not shown | binding result [1]: no binding (tested: 100 nM) |
| 44 RU | 16.8 nM | 0.00519 s⁻¹ | 308000 M⁻¹ s⁻¹ | 2.2 min | 47 RU | 14 nM | 0.0048 s⁻¹ | 342000 M⁻¹ s⁻¹ | 2.4 min | 46 RU | 19.3 nM | 0.00773 s⁻¹ | 401000 M⁻¹ s⁻¹ | 1.5 min | 52 RU | 15.4 nM | 0.00665 s⁻¹ | 433000 M⁻¹ s⁻¹ | 1.7 min | bsAb19150D (bispecific antibody, V domains shown, LEPR x GP130 bispecific with common light chain) VH 1: QVQLVESGGGVVQPGRSLRLSCTASGFTFSSYAMYWVRQAPGKGLEWVSVIYYDGSYKYYADSVKGRFTISRDNSKNTLYLQMDSLRAEDTAVYYCASYNWNYWYFDFWGRGTLVTVSS VH 2: EVQLVESGGGLVQSGGSLRLSCAASGFTFSRYEMNWVRQAPGKGLEWVAYISNTGTTRDYSDSVKGRFTISRDNAKNSLYLQMSSLRVEDTAVYYCVREKFSGTSDWFDPWGQGTLVTVSS VL: not shown |  |
| 23 RU | 1.73 nM | 0.000396 s⁻¹ | 229000 M⁻¹ s⁻¹ | 29 min | 24 RU | 1.62 nM | 0.000419 s⁻¹ | 258000 M⁻¹ s⁻¹ | 28 min | 32 RU | 4.33 nM | 0.00123 s⁻¹ | 284000 M⁻¹ s⁻¹ | 9 min | 33 RU | 3.95 nM | 0.00126 s⁻¹ | 319000 M⁻¹ s⁻¹ | 9 min | bsAb19153D (bispecific antibody, V domains shown, LEPR x GP130 bispecific with common light chain) VH 1: QVQLVESGGGVVQPGRSLRLSCTASGFTFSSYAMYWVRQAPGKGLEWVSVIYYDGSYKYYADSVKGRFTISRDNSKNTLYLQMDSLRAEDTAVYYCASYNWNYWYFDFWGRGTLVTVSS VH 2: QVQLVQSGAEVMKPGASVKVSCRASGYTFSSYDINWVRQAPGQGLEWMGWISTATGNTNYPQKVQGRVTMTTDTSTNTAYMELRSLRSDDTAVYYCTREGNSKGWLDPWGQGTLVTVSS VL: not shown |  |
| 31 RU | 0.513 nM | 0.000258 s⁻¹ | 502000 M⁻¹ s⁻¹ | 45 min | 31 RU | 0.448 nM | 0.000273 s⁻¹ | 609000 M⁻¹ s⁻¹ | 42 min | 53 RU | 0.959 nM | 0.000626 s⁻¹ | 653000 M⁻¹ s⁻¹ | 18 min | 53 RU | 0.901 nM | 0.000641 s⁻¹ | 712000 M⁻¹ s⁻¹ | 18 min | bsAb19146D (bispecific antibody, V domains shown, LEPR x GP130 bispecific with common light chain) VH 1: QVQLVESGGGVVQPGRSLRLSCTASGFTFSSYAMYWVRQAPGKGLEWVSVIYYDGSYKYYADSVKGRFTISRDNSKNTLYLQMDSLRAEDTAVYYCASYNWNYWYFDFWGRGTLVTVSS VH 2: QVQLVQSGPEVKKPGSSVKVSCKASGGTIDRNEITWVRQAPGQGLEWMGVIIPILGEAHYERKFQGRLTITMDESTSTAYMELSNLRSEDTAVYYCARERAARGYLDYWGQGTLVTVSS VL: not shown |  |
